T1: YeeV fused to the GAL4 DNA binding domain (pGBD-C1) (E. coli), P64524
T1 chain: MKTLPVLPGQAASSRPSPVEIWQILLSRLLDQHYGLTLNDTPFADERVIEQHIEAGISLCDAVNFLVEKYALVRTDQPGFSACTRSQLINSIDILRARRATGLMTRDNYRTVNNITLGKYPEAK

B1: FtsZ fused to the GAL4 activation domain (pGAD-C1), P0A9A6 1-383 (natural protein)
chain: MFEPMELTNDAVIKVIGVGGGGGNAVEHMVRERIEGVEFFAVNTDAQALRKTAVGQTIQIGSGITKGLGAGANPEVGRNAADEDRDALRAALEGADMVFIAAGMGGGTGTGAAPVVAEVAKDLGILTVAVVTKPFNFEGKKRMAFAEQGITELSKHVDSLITIPNDKLLKVLGRGISLLDAFGAANDVLKGAVQGIAELITRPGLMNVDFADVRTVMSEMGYAMMGSGVASGEDRAEEAAEMAISSPLLEDIDLSGARGVLVNITAGFDLRLDEFETVGNTIRAFASDNATVVIGTSLDPDMNDELRVTVVATGIGMDKRPEITLVTNKQVQQPVMDRYQQHGMAPLTQEQKPVAKVVNDNAPQTAKEPDYLDIPAFLRKQAD
B2: MreB fused to the GAL4 activation domain, P0A9X4 1-347 (natural protein)
chain: MLKKFRGMFSNDLSIDLGTANTLIYVKGQGIVLNEPSVVAIRQDRAGSPKSVAAVGHDAKQMLGRTPGNIAAIRPMKDGVIADFFVTEKMLQHFIKQVHSNSFMRPSPRVLVCVPVGATQVERRAIRESAQGAGAREVFLIEEPMAAAIGAGLPVSEATGSMVVDIGGGTTEVAVISLNGVVYSSSVRIGGDRFDEAIINYVRRNYGSLIGEATAERIKHEIGSAYPGDEVREIEVRGRNLAEGVPRGFTLNSNEILEALQEPLTGIVSAVMVALEQCPPELASDISERGMVLTGGGALLRNLDRLLMEETGIPVVVAEDPLTCVARGGGKALEMIDMHGGDLFSEE

Experiments:
[1] = target: MreB fused to the GAL4 DNA binding domain (pGBD-C1) (E. coli), P0A9X4; test: two-hybrid; settings: remark: other sources report otherwise
[2] = target: T1, YeeV fused to the GAL4 DNA binding …; test: two-hybrid; settings: remark: other sources report otherwise

Binder	β-Galactosidase activity (Miller Units) [1]	β-Galactosidase activity (Miller Units) [2]
B1	345 Miller Units	
B2		98 Miller Units

— PMC3021753
